No end group written: not given here.
Legend:
[1] = target: RSVB18537
[2] = target: hPIVC243
[3] = target: RSVA2

Binder: VALDPIDISIELNKAKSDLEESKEWIRRSNQKLDSI (also: conjugated to cholesterol) [HPIV3_3004 (native) HR2 ligand conjugated to cholesterol (Peptide Conjugate 12)]
- EC50 [1]: < 40 nM
- EC50 [2]: > 5290 nM
- EC50 [3]: 50 nM

From patent US20260131011A1
